Substrate in the series: NC(=O)c1ccc[n+]([C@@H]2O[C@H](COP(=O)([O-])OP(=O)(O)OC[C@H]3O[C@@H](n4cnc5c(N)ncnc54)[C@H](O)[C@@H]3O)[C@@H](O)[C@H]2O)c1
Kind of series: purified protein. The series is classed as biochemical, Triticum aestivum.

B1: Ga3PDHase (phosphorylating NAD+-dependent glyceraldehyde-3-phosphate dehydrogenase, EC 1.2.1.12) (Triticum aestivum) (protein)
chain: MGKIKIGINGFGRIGRLVARVALQSPDVELVAVNDPFITTDYMTYMFKYDTVHGQWKHHEVKVKDSKTLLFGEKEVAVFGCRNPEEIPWAAAGAEYVVESTGVFTDKDKAAAHIKGGAKKVIISAPSKDAPMFVCGVNEKEYKSDIDIVSNASCTTNCLAPLAKVINDRFGIVEGLMTTVHAMTATQKTVDGPSSKDWRGGRAASFNIIPSSTGAAKAVGKVLPELNGKLTGMAFRVPTVDVSVVDLTVRLAKPATYDQIKAAIKEESEGNLKGILGYVDEDLVSTDFQGDNRSSIFDAKAGIALNDHFVKLVSWYDNEWGYSTRVVDLIRHMHSTK
notes: recombinant wheat gapC (NCBI EF592180), homotetramer, E. coli
As for B1, the K0.5 stood at 136 µM.
